Experimental data: US20110150861A1

Molecular target: human TNFalpha (human) (UniProt P01375)
Test: SPR (BiaCore), antibody purified by protein A and SEC

Sequence of UniProt P01375 (P01375 77-233 limits assumed): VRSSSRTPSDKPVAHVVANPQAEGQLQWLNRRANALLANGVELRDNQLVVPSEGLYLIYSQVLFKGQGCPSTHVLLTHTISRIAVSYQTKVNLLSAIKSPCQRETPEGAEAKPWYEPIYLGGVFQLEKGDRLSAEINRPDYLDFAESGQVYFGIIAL

D2E7 antibody product secreted from sORF construct pTT3-pfu lon HL (-)
Kd: 72.9 pM | koff: 0.00011 s⁻¹ | kon: 1.51e+06 M⁻¹ s⁻¹
